Reference: US20210292390A1, “CHIMERIC ANTIGEN RECEPTORS” (Oxford University Innovation Limited, priority 2016, published 2021)
Changes are numbered by the printed parent chain. Names and notes keep the numbering of the source.

Assays:
[1] = target: biotinylated CD6 peptide pY629 Y662 (human); experiment: SPR (BIAcore 3000), equilibrium binding, biotinylated peptide on streptavidin CM5 chip, 15° C.
[2] = target: biotinylated CD6 peptide pY629 pY662 (human); experiment: as above
[3] = target: biotinylated CD6 peptide pY629 Y662 (human); experiment: SPR (BIAcore 3000), equilibrium binding, biotinylated peptide on streptavidin CM5 chip, 37° C.
[4] = target: biotinylated CD6 peptide pY629 pY662 (human); experiment: as above
[5] = target: T1, GADS (Homo sapiens, UniProt O75791); experiment: Co-immunoprecipitation with CD6 constructs in Jurkat cells, Western blot; type: binding; conditions: Jurkat cells treated with Na3VO4
T1 construct: endogenous in cells; host or cells: Jurkat cells
T1 sequence (O75791 1-330): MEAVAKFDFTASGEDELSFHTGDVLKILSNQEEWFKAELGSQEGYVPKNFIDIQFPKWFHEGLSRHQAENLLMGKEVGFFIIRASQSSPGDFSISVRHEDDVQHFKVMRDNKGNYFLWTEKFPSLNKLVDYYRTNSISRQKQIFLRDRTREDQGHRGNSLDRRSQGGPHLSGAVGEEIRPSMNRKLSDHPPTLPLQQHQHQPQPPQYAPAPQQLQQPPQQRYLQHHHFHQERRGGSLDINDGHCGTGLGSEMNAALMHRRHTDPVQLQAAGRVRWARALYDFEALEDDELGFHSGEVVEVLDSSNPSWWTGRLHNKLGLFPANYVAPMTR
Text: (§1) In FIG. 2(A) Lysate of 8×10^5 Jurkat cells treated with the phosphatase inhibitor Na3VO4 or immunoprecipitation samples of 3×10^6 cells were loaded on gels and after electrophoretic separation they were blotted on nitrocellulose membranes. The membranes were probed with the indicated antibodies and visualised using LI-COR western blotting. FIG. 2(B) illustrates Western Blot bands of three independent CD6 co-immunoprecipitations were quantified using the software ImageJ. Each co-immunoprecipitation value is divided by the intensity of the band in the lysate to compensate for differences in cell numbers used and is normalised to the intensity of EGFP in the co-immunoprecipitation divided by the intensity of EGFP in the lysate to compensate for different expression levels of the constructs. Samples were analysed using the unpaired Student t test comparing values of mutants to the VVT. n=3, error bars show the standard error of the mean, * p<0.05, ** p<0.01, ns=not significant.

[6] = target: T2, SLP-76 (Homo sapiens, UniProt Q13094); experiment: as above; type: binding; conditions: Jurkat cells treated with Na3VO4
T2 construct: endogenous in cells; host or cells: Jurkat cells
T2 sequence (Q13094 1-533): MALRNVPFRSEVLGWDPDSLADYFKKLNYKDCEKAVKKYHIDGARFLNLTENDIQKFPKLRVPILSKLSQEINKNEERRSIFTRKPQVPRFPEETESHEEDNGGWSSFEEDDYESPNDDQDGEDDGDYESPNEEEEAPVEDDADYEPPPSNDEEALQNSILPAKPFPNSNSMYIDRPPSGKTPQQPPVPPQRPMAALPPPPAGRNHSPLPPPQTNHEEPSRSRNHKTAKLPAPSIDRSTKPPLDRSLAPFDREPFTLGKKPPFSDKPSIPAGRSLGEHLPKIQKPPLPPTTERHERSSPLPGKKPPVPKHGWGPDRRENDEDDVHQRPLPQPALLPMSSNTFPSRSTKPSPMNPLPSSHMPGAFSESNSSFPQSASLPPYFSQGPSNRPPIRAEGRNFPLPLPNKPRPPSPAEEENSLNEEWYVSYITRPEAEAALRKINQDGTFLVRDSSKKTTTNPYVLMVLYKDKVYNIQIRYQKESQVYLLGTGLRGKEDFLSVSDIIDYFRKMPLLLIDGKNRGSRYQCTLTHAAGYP
Text: as §1

[7] = system: CD4+ T cells; experiment: Primary T cell activation by CD69 expression after CD3 and CD6 antibody stimulation; type: cell-based; conditions: CD3 antibodies and 5 μg/ml CD6 antibodies; three donors; versus untransduced cells
Method: CD4+ T cells were stimulated with CD3 antibodies and 5 μg/ml CD6 antibodies to crosslink transduced CD6.

[8] = system: primary T cells; experiment: Intracellular IL-2 in primary T cells after antibody stimulation; type: cell-based
[9] = system: 2B4 Reay cells; experiment: IL-2 secretion (ELISA) by hybridoma cells expressing chimeric receptors after CD6 crosslinking; type: cell-based, mouse
Text: The activity of the exemplary chimeric receptor was compared with that of a comparator chimeric receptor lacking the CD6-derived signalling region. Both chimeric receptor molecules contained the extracellular and transmembrane regions of human CD6 and the cytoplasmic region of mouse CD3 zeta. The exemplary chimeric receptor further comprised residues 623 to 668 from the C terminus of human CD6.
Murine T hybridoma cells were transduced to express either the exemplary or comparator chimeric receptors. Cells were assessed for their response to human CD6 monoclonal antibody immobilised on 96 well tissue culture plates. After incubation for 18 h at 37° C., the supernatants were analysed for the presence of mouse IL-2 by ELISA.
The activity of a comparator chimeric receptor (consisting of the extracellular region of human CD6 and the mouse CD3 zeta tail, effectively a first generation CAR in the cytoplasmic region) was investigated alongside the exemplary chimeric receptor illustrative of CARs or cells of the invention. […] The cells were stimulated with different concentrations of plate-bound T12.1 monoclonal antibody (mAb), a CD6 crosslinking antibody, overnight and secreted mouse IL-2 was measured by ELISA.

[10] = target: biotinylated CD6 peptide Y629 pY662 (human); experiment: SPR (BIAcore 3000), equilibrium binding, biotinylated peptide on streptavidin CM5 chip, 15° C.
[11] = target: biotinylated CD6 peptide Y629 pY662 (human); experiment: SPR (BIAcore 3000), equilibrium binding, biotinylated peptide on streptavidin CM5 chip, 37° C.

B1: recombinant GADS SH2 domain (his-tagged) (protein, UniProt O75791 58-149, looked up)
chain: WFHEGLSRHQAENLLMGKEVGFFIIRASQSSPGDFSISVRHEDDVQHFKVMRDNKGNYFLWTEKFPSLNKLVDYYRTNSISRQKQIFLRDRT
[1]
  Kd: 150 to 620 nM
[2]
  Kd: 140 to 2050 nM
[3]
  Kd: 600 to 880 nM
[4]
  Kd: 770 to 1580 nM

B2: CD6 Y629F: mutant form of CD6 with tyrosine Y629 substituted (protein)
chain: DQLNTSSAESELWEPGERLPVRLTNGSSSCSGTVEVRLEASWEPACGALWDSRAAEAVCRALGCGGAEAASQLAPPTPELPPPPAAGNTSVAANATLAGAPALLCSGAEWRLCEVVEHACRSDGRRARVTCAENRALRLVDGGGACAGRVEMLEHGEWGSVCDDTWDLEDAHVVCRQLGCGWAVQALPGLHFTPGRGPIHRDQVNCSGAEAYLWDCPGLPGQHYCGHKEDAGAVCSEHQSWRLTGGADRCEGQVEVHFRGVWNTVCDSEWYPSEAKVLCQSLGCGTAVERPKGLPHSLSGRMYYSCNGEELTLSNCSWRFNNSNLCSQSLAARVLCSASRSLHNLSTPEVPASVQTVTIESSVTVKIENKESRELMLLIPSIVLGILLLGSLIFIAFILLRIKGKYALPVMVNHQHLPTTIPAGSNSYQPVPITIPKEVFMLPIQVQAPPPEDSDSGSDSDYEHYDFSAQPPVALTTFYNSQRHRVTDEEVQQSRFQMPPLEEGLEELHASHIPTANPGHCITDPPSLGPQYHPRSNSESSTSSGEDYCNSPKSKLPPWNPQVFSSERSSFLEQPPNLELAGTQPAFSAGPPADDSSSTSSGEWFQNFQPPPQPPSEEQFGCPGSPSPQPDSTDNDDYDDISAA
modifications: left off: large carriers; small tags and cut ends
notes: mutant form of CD6 with tyrosine Y629 substituted
[5]
  co-immunoprecipitation of GADS: strongly reduced
[6]
  co-immunoprecipitation of SLP-76: strongly reduced

B3: CD6 Y662F: mutant form of CD6 with tyrosine Y662 substituted (protein)
chain: B2 chain with F605Y, Y638F
modifications: left off: large carriers; small tags and cut ends
notes: mutant form of CD6 with tyrosine Y662 substituted
[5]
  co-immunoprecipitation of GADS: strongly reduced
[6]
  co-immunoprecipitation of SLP-76: strongly reduced

B4: CD6 Y629F Y662F: mutant form of CD6 with both tyrosine residues Y629 and Y662 substituted (protein, UniProt P30203 1-668, looked up, variant Y629F Y662F)
chain: MWLFFGITGLLTAALSGHPSPAPPDQLNTSSAESELWEPGERLPVRLTNGSSSCSGTVEVRLEASWEPACGALWDSRAAEAVCRALGCGGAEAASQLAPPTPELPPPPAAGNTSVAANATLAGAPALLCSGAEWRLCEVVEHACRSDGRRARVTCAENRALRLVDGGGACAGRVEMLEHGEWGSVCDDTWDLEDAHVVCRQLGCGWAVQALPGLHFTPGRGPIHRDQVNCSGAEAYLWDCPGLPGQHYCGHKEDAGAVCSEHQSWRLTGGADRCEGQVEVHFRGVWNTVCDSEWYPSEAKVLCQSLGCGTAVERPKGLPHSLSGRMYYSCNGEELTLSNCSWRFNNSNLCSQSLAARVLCSASRSLHNLSTPEVPASVQTVTIESSVTVKIENKESRELMLLIPSIVLGILLLGSLIFIAFILLRIKGKYALPVMVNHQHLPTTIPAGSNSYQPVPITIPKEVFMLPIQVQAPPPEDSDSGSDSDYEHYDFSAQPPVALTTFYNSQRHRVTDEEVQQSRFQMPPLEEGLEELHASHIPTANPGHCITDPPSLGPQYHPRSNSESSTSSGEDYCNSPKSKLPPWNPQVFSSERSSFLEQPPNLELAGTQPAFSAGPPADDSSSTSSGEWFQNFQPPPQPPSEEQFGCPGSPSPQPDSTDNDDFDDISAA
[5]
  co-immunoprecipitation of GADS: almost no SLP-76 and GADS was detected
[6]
  co-immunoprecipitation of SLP-76: almost no SLP-76 and GADS was detected
[7]
  percentage of CD69 positive cells: no significant difference
[8]; CD3 antibodies but not CD6 antibodies
  percentage of IL-2 positive cells: did not show a significantly increased level of T cell activation
[8]; both CD3 antibodies and CD6 antibodies, three donors
  percentage of IL-2 positive cells: did not show a significantly increased percentage of IL-2 positive cells

B5: chimeric receptor of SEQ ID NO.4: human CD6 extracellular and transmembrane regions, mouse CD3 zeta cytoplasmic region, plus human CD6 C terminus (protein)
chain: MWLFFGITGLLTAALSGHPSPAPPDQLNTSSAESELWEPGERLPVRLTNGSSSCSGTVEVRLEASWEPACGALWDSRAAEAVCRALGCGGAEAASQLAPPTPELPPPPAAGNTSVAANATLAGAPALLCSGAEWRLCEVVEHACRSDGRRARVTCAENRALRLVDGGGACAGRVEMLEHGEWGSVCDDTWDLEDAHVVCRQLGCGWAVQALPGLHFTPGRGPIHRDQVNCSGAEAYLWDCPGLPGQHYCGHKEDAGAVCSEHQSWRLTGGADRCEGQVEVHFRGVWNTVCDSEWYPSEAKVLCQSLGCGTAVERPKGLPHSLSGRMYYSCNGEELTLSNCSWRFNNSNLCSQSLAARVLCSASRSLHNLSTPEVPASVQTVTIESSVTVKIENKESRELMLLIPSIVLGILLLGSLIFIAFILRAKFSRSAETAANLQDPNQLYNELNLGRREEYDVLEKKRARDPEMGGKQQRRRNPQEGVYNALQKDKMAEAYSEIGTKGERRRGKGHDGLYQGLSTATKDTYDALHMQTLAPRTSSGEWYQNFQPPPQPPSEEQFGCPGSPSPQPDSTDNDDYDDISAA
[9]
  increase of IL-2 production as compared to a control receptor lacking the CD6-derived signalling region: at least 2.5 fold

B6: recombinant SLP-76 SH2 domain (his-tagged) (protein, UniProt Q13094 422-530, looked up)
chain: WYVSYITRPEAEAALRKINQDGTFLVRDSSKKTTTNPYVLMVLYKDKVYNIQIRYQKESQVYLLGTGLRGKEDFLSVSDIIDYFRKMPLLLIDGKNRGSRYQCTLTHAA
[2]
  Kd: 260 to 1820 nM
[10]
  Kd: 310 to 1870 nM
[4]
  Kd: 620 to 2820 nM
[11]
  Kd: 890 to 3090 nM
